Test results: IntAct's records for PubMed 23663663

B1: E3 ubiquitin-protein ligase CBL-B (Homo sapiens), Q13191 (parent)
chain: MANSMNGRNPGGRGGNPRKGRILGIIDAIQDAVGPPKQAAADRRTVEKTWKLMDKVVRLCQNPKLQLKNSPPYILDILPDTYQHLRLILSKYDDNQKLAQLSENEYFKIYIDSLMKKSKRAIRLFKEGKERMYEEQSQDRRNLTKLSLIFSHMLAEIKAIFPNGQFQGDNFRITKADAAEFWRKFFGDKTIVPWKVFRQCLHEVHQISSGLEAMALKSTIDLTCNDYISVFEFDIFTRLFQPWGSILRNWNFLAVTHPGYMAFLTYDEVKARLQKYSTKPGSYIFRLSCTRLGQWAIGYVTGDGNILQTIPHNKPLFQALIDGSREGFYLYPDGRSYNPDLTGLCEPTPHDHIKVTQEQYELYCEMGSTFQLCKICAENDKDVKIEPCGHLMCTSCLTAWQESDGQGCPFCRCEIKGTEPIIVDPFDPRDEGSRCCSIIDPFGMPMLDLDDDDDREESLMMNRLANVRKCTDRQNSPVTSPGSSPLAQRRKPQPDPLQIPHLSLPPVPPRLDLIQKGIVRSPCGSPTGSPKSSPCMVRKQDKPLPAPPPPLRDPPPPPPERPPPIPPDNRLSRHIHHVESVPSRDPPMPLEAWCPRDVFGTNQLVGCRLLGEGSPKPGITASSNVNGRHSRVGSDPVLMRKHRRHDLPLEGAKVFSNGHLGSEEYDVPPRLSPPPPVTTLLPSIKCTGPLANSLSEKTRDPVEEDDDEYKIPSSHPVSLNSQPSHCHNVKPPVRSCDNGHCMLNGTHGPSSEKKSNIPDLSIYLKGDVFDSASDPVPLPPARPPTRDNPKHGSSLNRTPSDYDLLIPPLGEDAFDALPPSLPPPPPPARHSLIEHSKPPGSSSRPSSGQDLFLLPSDPFVDLASGQVPLPPARRLPGENVKTNRTSQDYDQLPSCSDGSQAPARPPKPRPRRTAPEIHHRKPHGPEAALENVDAKIAKLMGEGYAFEEVKRALEIAQNNVEVARSILREFAFPPPVSPRLNL

Variants of: B1
Conditions: with sh3k1_human SH3KBP1, Q96B97
sh3k1_human SH3KBP1, Q96B97, sequence (Q96B97 whole entry): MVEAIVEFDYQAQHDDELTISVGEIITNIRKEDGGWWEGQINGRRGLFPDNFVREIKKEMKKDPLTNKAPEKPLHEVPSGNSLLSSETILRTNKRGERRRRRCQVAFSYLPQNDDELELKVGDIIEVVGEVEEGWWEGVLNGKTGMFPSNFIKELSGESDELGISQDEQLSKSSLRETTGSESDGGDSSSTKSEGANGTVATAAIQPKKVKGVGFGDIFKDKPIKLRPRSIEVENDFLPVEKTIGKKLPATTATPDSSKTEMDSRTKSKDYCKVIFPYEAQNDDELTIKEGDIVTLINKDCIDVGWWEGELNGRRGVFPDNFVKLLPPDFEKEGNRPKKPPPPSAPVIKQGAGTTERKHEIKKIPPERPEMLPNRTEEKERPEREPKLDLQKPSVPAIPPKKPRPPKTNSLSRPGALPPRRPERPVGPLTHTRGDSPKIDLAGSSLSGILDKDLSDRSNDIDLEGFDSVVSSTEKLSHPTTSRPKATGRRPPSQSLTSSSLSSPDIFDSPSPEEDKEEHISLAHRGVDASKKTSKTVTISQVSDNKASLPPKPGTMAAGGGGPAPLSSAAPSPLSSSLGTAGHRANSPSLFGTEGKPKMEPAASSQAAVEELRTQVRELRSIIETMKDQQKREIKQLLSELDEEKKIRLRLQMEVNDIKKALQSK

Row | Variant | effect of a mutation on the interaction
1 | R911A | decreasing interaction

Variants of: B1
Conditions: with cd2ap_human CD2AP

Row | Variant | effect of a mutation on the interaction
2 | R911A | decreasing interaction

Variants of: B1
Conditions: with cd2ap_human CD2AP
Remark: another data set of the same source

Row | Variant | effect of a mutation on the interaction
3 | K907L | decreasing interaction

Variants of: B1
Conditions: with sh3k1_human SH3KBP1, Q96B97
Remark: another data set of the same source

Row | Variant | effect of a mutation on the interaction
4 | K907L | decreasing interaction

Variants of: B1
Conditions: with cd2ap_human CD2AP
Remark: another data set of the same source

Row | Variant | effect of a mutation on the interaction
5 | R904G | decreasing interaction

Variants of: B1
Conditions: with sh3k1_human SH3KBP1, Q96B97
Remark: another data set of the same source

Row | Variant | effect of a mutation on the interaction
6 | R904G | decreasing interaction
